Test: label from the status in PepcDB records
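Note: failed if final PepcDB status was selected cloned or expressed and not failed if soluble or beyond.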

Sequence | protein production
EVKEEDAFYSKKCKLFYKKDNEFKEKGIGTLHLKPTANQKTQLLVRADTNLGNILLNVLIPPNMPCTRTGKNNVLIVCVPNPPIDEKNATMPVTMLIRVKTSEDADELHKILLEKKDA | not failed
EVLLETLNATELNETTASLAVHQTMKENGQLFVSNSMAIRYLDRFMDSRPYRMFGNRGINGIDGIVSTALGMSAIAPTQQNVLLIGDLALYHDMNGLFLAKRYQLPLTIVLLNNNGGGIFSFLSQRTLREDDFEPLFGTPLDLDFSLVAELYGASYQEVKTIAELKQILQAAAEEPQFQVIEVKGNRQEN | not failed
EVLPDGVINVLGASNCPSKGIDRGGVIDLDAAVNSIQRAIEQAESVSNCQIMGVTLAISGQHITALNESGVIPLSGTVVRKEDIDAAIHIAHSIKLPDG | failed
EVNAAMNDGVICDMFEGHTPFKPRYVLPDYARYLQQGSEYLELSPAQDLDEALNALTILYHHVPSVTNIPVYLGQLDDILMPFVEGMDADALYRKLKLFWIMLDRTLPDAFMHVNLGPTDNIVCRTLLRIDAELKQVAPNLTFMYDPAVTPDELLQIATTNICQCSKPHIANYPQHASAFDACGFGIVSCYNALPLAGGANTLVRLNLKEVALKATSINDFFERVLPYYCSLTFELIEARSAFLHQESHFFDSFLVKEQLIDESRFAPMFGIYGMAEAVNILQAQMTSETDKSSQSNKPTGYGHSMDANQLGYRISAALDTIVKSTPVTYGYHGRALLHSQGGISLDKGVTPGVRIPYGTEPNPIAHIQALAQHHQYYTAGISDILTIDETVKSNPQAMFQLCKAALELGFREFTANVASNDLMRVTGYMVKRSDIEAFKQ | failed
EVPDLPEEPSETAEEVVTVALRCPNGRVLRRRFFKSWNSQVLLDWMMKVGYHKSLYRLSTSFPRRALEVEGGSSLEDIGITVDTVLNVEEKEQSSQ | not failed
EVTGSVSLEALEEVQVGENLEVGVGIDELVNAEAFAYDFTLNYDENAFEYVEAISDDGVFVNAKKIEDGKVRVLVSSLTGEPLPAKEVLAKVVLRAEAKAEGSNLSVTNSSVGDGEGLVHEIAGTEKTVNIIE | not failed
FAFVYEAQDVGSGREYALKRLLSNEEEKNRAIIQEVCFMKKLSGHPNIVQFCSAASIGKEESDTGQAEFLLLTELCKGQLVEFLKKMESRGPLSCDTVLKIFYQTCRAVQHMHRQKPPIIHRDLKVENLLLSNQGTIKLCDFGSATTISHYPDYSWSAQRRALVEEEITRNTTPMYRTPEIIDLYSNFPIGEKQDIWALGCILYLLCFRQHPFEDGAKLRIVNGKYSIPPHDTQYTVFHSLIRAMLQVNPEERLSIAEVVHQLQEIAAARNVNPKSPITELLEQNGGYGSAT | failed
FEERSGVVPCGTPWGQWYQTLEEVFIEVQVPPGTRAQDIQCGLQSRHVALAVGGREILKGKLFDSTIADEGTWTLEDRKMVRIVLTKTKRDAANCWTSLLESEYAADPWVQDQMQRKLTLERFQKENPGFDFSGAEISGNYTKGGPDFSNLEKDGT | not failed
FEPRSLITSDKGFVTMTLESLEEIQDVSCAWKELNRKLSSNAVSQITRMCLLKGNMGVCFDVPTTESERLQAEWHDSDWILSVPA | not failed
FGAEFSSEACRELGFSSNLLCSSCDLLGQFNLLQLDPDCRGCCQEEAQFETKKLYAGAILEVCGUKLGRFPQVQAFVRSDKPKLFRGLQIKYVRGSDPVLKLLDDNGNIAEELSILKWNTDSVEEFLSEKLERI | failed
FGLEGLPKHLKRIPLECLVEAKSYLRQYPQVDSERIGIYGRSKGAELVLAEESIFNDVQCLVLNSPSDVVDEGIIGKWNSHTSSWTHLQKELPYQKFRFRDYLFSKLFRKDFPKDCSARIDIGQMHSPILLLESTVDEIWDASSAIDDIVSHYKGHYITFKKYHETGHMLTVAYQPNHRYRKDWHLLMKESEDSWLATIHFFDRHLK | failed
FGNQKIFVCDARADWTNEFRTCSMFKNVHINRWYVITPSRNLRETQEFVQMCIRTASSMKMNICNPIYEEIPDDRNGTYSQAIDNAAANDPQIVMVVMRS | failed
FHPVYSVQLEQKLVEKFNLKRALISLDQPNTNEQRKQVAALVSSYLNNNLQEGMAVAVGQGQNVAAVADHAGIVTQRNARFVSAIGGTHRSGDIINADHICRRLAKKYGGSSETLYAPAYVNDPSLRSAFMEHATIKETLSQARKAEFALVGIGDMDENSHMVKLGFFTPKEFVEARLNDGIVGDIGGFDFFKLDGTDADTLMRGRVIGLEMEDLRQIPNVVAMASESRKALSIMGALRTGVIDVLATSVSCAMALLNLAENEE | not failed
FLCMIPMFLYDFSSDKVIALIARILYFSDYFIVILFLIFIINSTKYSPFVLENVKRFKVMGCCLLINTIIECINGYNLNTNNIRIFGTDSGGISPLMVISFIFALMCFVIAETFDKAIKIKEDNDLTI | failed
FRLIGKHRLPRVDSAAKSDGSALYTQDMKLPGMLVAVVAHAPRLGAAVARVDDAAARAVPGVRAVVRFGGAALRHAGVAVLATNTWAARAGRDALRIEWDEGP | failed
FRPVMPSRQIVERQPRMLDFRVEYRDRNVDVVLEDTCTVGEIKQILENELQIPVSKMLLKGWKTGDVEDSTVLKSLHLPKNNSLYVLTPDL | failed
GDIEQAAGHVVDGLSHLEVHPDVPDGIRALRERGFRLVTMTNGSSDLSKRLLGRAGLADCFESHLDASGPQRWKPAQAAYQYVVEQVGVRLDEAVLVAVHPWDVDGAQRAGLGGAWLRRDAADYPQVMLPPTYTVGNLRELAETLA | failed
GEKIFVRVTSVGRNNCRVDCYGIEYRVPINEIDYGYIDKVDKYVQVGDVVPAIIKELDIDNNIVVVSIKEAKEDPYLGIVKSLNKG | failed

Sequence | protein production
GFAAYIWGSDFSFEVSAYAVAEREVPVADWVLRRIVPYRKCYGIDPEEFSSYRNAADSEIFMAYLDDQPVGHVVVSTNWNGYAHIDELAVHAPARRHGVARALLDVAQFWSRRKKLPGMMLETQNNNLGACRLYEQCGYVVGGVDHLRYRGIDPQTAEVAIFWYRLFANELE | failed
GGDTELSDSPTLPLNSILAGNCIEILKTLPDNSVDLIFADPPYNLQLSGELFRPEGSRVDAVNNAWDKFDTFAAYDHFTRLWLKEAHRVLKEDGTIWVIGSYHNIFRVGTALQDQGFWILNDIIWRKSNPMPNFKGRRFTNAHETLIWASKSDKSRYVFNYASLKTFNDDLQMRSDWLLPICSGNERLKGENGQKIHPTQKPEALLYRIILASSRPDDVILDPFFGTGTTGVIARHLRRHWIGIEQDPTYIKAAQARIDKAEVF | not failed
GGRAVARTLIQDVTERVRSRKKLEHYREYTDRLLDAIDDLFLVFDEEAKLTRWNDRVVEVTGYADEALGGMEALGFVPEEERERVASQIADGFMTGHAKMDIPLRRADGTTVPYEIAGNLVDRP | failed
GGRGIIRLIKDNKSLTMKNTEVMLHGSSLAFDASTLEIYAALLNGACLSIIDKEDLIDSQTLKEKLKNDHVNRAFFTTPLFNSLCEQDPSVFNELEQVIIGGDRASNKHLKIVMKNSKKTQFYNGYGPTENTVFTTMHNIQYSELEGDIPIGKA | failed
GHHHHHHAIAENLYFQSSRNPEVLWAQRSDKVYLTVALPDAKDISVKCEPQGLFSFSALGAQGERFEFSLELYGKIMTEYRKNVGLRNIIFSIQKEERSWWTRLLKSEEKPAPYIKVDWNKWCDEDEEVNSETASDDESAFVNQDSESSDDDGLLYLPDLEKARNK | failed
GIHMGKIKRRAITEHEKRALRHYFFQLQNRSGQQDLIEWFREKFGKDISQPSVSQILSSKYSYLDNTVEKPWDVKRNRPPKYPLLEAALFEWQVQQGDDATLSGETIKRAAAILWHKIPEYQDQPVPNFSNGWLEGFRKRHILH | not failed
GIHYTSEKDIRQIVRPTIADYWEGKIDEATTYEDLEKLKQELREYRVLDPACGSGNFLYVAYQELKRLERVLLNKIYERRKRFQGEVLQQEEIGIVTPLQFFGMDTNPFAVQLARVTMMIARKIAIDKFGLTEPALPLDSLDQNIVCQDALFNDWPKADAIIGNPPFLGGSRVRLELGDKYVERIFEKFSDVKDKVDFCVYWFRLAHENLNKTGRAGLVGTNSISQGFSRRASLEYIVNNGGIIHDAISTQVWSGQANVHVSLVNWQYLKPPEYVLDHEIVKNINSSLKSETDVSNAVKLK | failed
GLIDESEQRLVDNIFEFEEKKIREIMVPRTDMVCIYESDSEEKILAILKEEGVTRYPVCRKNKDDILGFVHIRDLYNQKINENKIELEEILRDIIYISENLTIDKALERIRKEKLQLAIVVDEYGGTSGVVTIEDILEEIVGEIQ | not failed
GLPAVDSEILEMPPEKADGVVEGIDVNGPKAQLMLRYPDGKREQITLPEQAKLLALVKHVQSKGYPNERFELLTNFPRRKLSHLDYDITLQEAGLCPQETVFVQERN | failed
GLPVAQSTTTLIDALRTHRMAVVQAPPGTGKTTLVPPIAHNVTGGRVIVVAPRRVAVRAAAHHLVQLDQSSCDQPSTHRVGYTIRGERSRGDLVEFVTPGVLLRRLISNPELDGVSAVVVDEVHERQLDTDLVLGMLVELRELRDDLTVIAMSAT | failed
GLTTPLRELVENGFREGRIKIISSTPTLAAGLNLPARRVIIRSYRRYSSDSGMQPIPVLEYKQMAGRAGRPRLDPYGEAVLLAKSYEEFVFLFEKYIEAGAEDIWSKLGTENALRTHILSTISNGFA | failed
GMQGFFFNTRREIFKDKRVREALFYAFDFEWANKNLFFSQYKRTTSFFSNSIYASPPLPSPEEKALLAPYEKSLDERVFKEPYVVPRTDGVDVLGYNLRENLKYAQKLLESTGFSYKNMRLVDKNNKPFSFTLLLNSPAFERLALAFAKNLRVLGIEMKIQRVDLSQYVNRIKSYDFDMIVGVIGQSSFPGNEQRFYFGSLSAKEKGTRNYAGISSKAVDDLIEKIINAKDYKEQLAAIQAMDRVLLWGFYVIPHFYLP | failed
GNQSTSSKGSDTKKEQITVKHQLDKNGTKVPKNPKKVVVFDFGSLDTLDKLGLDDIVAGLPKQVLPKYLSKFKDDKYADVGSLKEPDFDKVAELDPDLIIISARQSESYKEFSKIAPTIYLGVDTAKYMESFKSDAETIGKIFDKEDKVKDELANIDHSIADVKKTAEKLNKNGLVIMANDGKISAFGPKSRYGLIHDVFGVAPADQNIKASTHGQSVSYEYISKTNPDYLFVIDRGTAIGETSSTKQVVENDYVKNVNAVKNGHVIYLDSATWYLSGGGLESMTQMIKEVKDGLEK | not failed
GPGSMYRSRPEPVQGHLFTYYKDPYCKIPVFMMNMDARRCVLWVGGQTESLLSFDYFTNLAEELQGDWAFVQVEVPSGKIGSGPQDHAHDAEDVDDLIGILLRDHCMNEVALFATSTGTQLVFELLENSAHKSSITRVILHGVVCDPENPLFTPEGCAARKEHVEKLMAEGRGEDSLAMLKHYDIPITPARLAGGGFPTLQEAVWNPCIRKEFDVLRRSVGVIKVPLLLMLAHNVQYKPSDEEVGTVLEGVRDHTGCNRVTVSYFNDTCDELRRVLKAAESEHVAAILQFLADEDEFRTETEKNNRIKAAEDEKKRKSVLQVSSFAQAASSVKAS | not failed
GPLGSAMRELLLSDEYAEQKRAVNRFMLLLSTLYSLDAQAFAEATESLHGRTRVYFAADEQTLLKNGNQTKPKHVPGTPYWVITNTNTGRKCSMIEHIMQSMQFPAELIEKVCGTI | not failed
GPVPTPPDNIQVQENFNISRIYGKWYNLAIGSTCPWLKKIMDRMTVSTLVLGEGATEAEISMTSTRWRKGVCEETSGAYEKTDTDGKFLYHKSKWNITMESYVVHTNYDEYAIFLTKKFSRHHGPTITAKLYGRAPQLRETLLQDFRVVAQGVGIPEDSIFTMADRGECVPGEQEPEPILIPRV | not failed
GQLAQDGVPEWFHGAISREDAENLLESQPLGSFLIRVSHSHVGYTLSYKAQSSCCHFMVKLLDDGTFMIPGEKVAHTSLDALVTFHQQKPIEPRRELLTQPCRQKD | not failed

— a protein production outcome set (Wang et al. 2014)
